PMC4018254, “Bacterial Magnetosome Biomineralization - A Novel Platform to Study Molecular Mechanisms of Human CDF-Related Type-II Diabetes” (PLoS ONE, 2014)

B1: MamM-CTD (cytosolic C-terminal domain of the magnetosome CDF transporter MamM), wild type (domain or fragment, Magnetospirillum gryphiswaldense)
chain: EAVQNRIVEAAERVPGVRGVIHLRARYVGQDIWADMIIGVDPENTVEQAHEICEAVQAAVCGKIRRIESLHVSAEAREIGDTTKPSFSDQPLSFDEVMLSKVDN
notes: MamM, cation diffusion facilitator of Magnetospirillum gryphiswaldense, cytosolic C-terminal domain (CTD); also called wild-type MamM-CTD; apo-MamM-CTD; source: recombinant, purified; expression and purification 'performed as previously described [20], [29], [30]'
B2: MamM-CTD V260W mutant (domain or fragment, Magnetospirillum gryphiswaldense)
chain: EAVQNRIVEAAERVPGVRGVIHLRARYVGQDIWADMIIGVDPENTWEQAHEICEAVQAAVCGKIRRIESLHVSAEAREIGDTTKPSFSDQPLSFDEVMLSKVDN
notes: MamM, cation diffusion facilitator of Magnetospirillum gryphiswaldense, cytosolic C-terminal domain (CTD) with V260W; The mutation mimics the W325 allele of human ZnT-8; source: recombinant, purified; expression, purification and site-directed mutagenesis 'performed as previously described [20], [29], [30]'
B3: MamM-CTD V260R mutant (domain or fragment, Magnetospirillum gryphiswaldense)
chain: EAVQNRIVEAAERVPGVRGVIHLRARYVGQDIWADMIIGVDPENTREQAHEICEAVQAAVCGKIRRIESLHVSAEAREIGDTTKPSFSDQPLSFDEVMLSKVDN
notes: MamM, cation diffusion facilitator of Magnetospirillum gryphiswaldense, cytosolic C-terminal domain (CTD) with V260R; The mutation mimics the R325 allele of human ZnT-8; source: recombinant, purified; expression, purification and site-directed mutagenesis 'performed as previously described [20], [29], [30]'

Target: the molecule itself
Assay: SEC; Superdex200; elution volumes of the mutants compared with wild-type MamM-CTD; self-association (dimer)

Row | Protein | stoichiometry N
1 | B1 | 2
2 | B2 | 2
3 | B3 | 2
